Measured values as given in publication PMC10154539 (Cell Reports, 2023).
Positions count from the first letter of the chain named.

B1: XG005a (antibody, V domains shown)
VH: QITLKESGPTLVKPTQTLTLTCTFSGFSLSTSGVGVGWIRQPPGKALEWLALIYWDNDKRYSPSLKSRLTITMDTSKNQVVLTMTNMDPVDTATYYCARLPSTDTIFDYWGQGALVTVSS
VL: QSALTQPASVSGSPGQSITVSCTGTSSDVGDYNYVSWYQQHPGKAPKLMIYDVSKRPSGVSNRFSGSKSGKTASLTISGLQAEDEADYYCSSYTSTSVVFGGGTKLTVL
B2: XG005c (antibody, V domains shown)
VH: B1 VH with N57D, M73K, L82V, S102A, Y109S, A114T
VL: B1 VL with V20I, D31A, K71Y, A82P, Y89F, S95T
B3: XG005 (antibody, V domains shown)
VH: QVTLRESGPTLVKPKQTLTLTCTFSGFSLSTPGGGVGWIRQPPGKALEWLALIYWDDDKRYSPSLKSSLTITKDTSKNQVVLTMTNMDPVDTATYYCARLTAADTIFDCWGQGTLVTVSS
VL: B1 VL with Q16L, V20I, G24A, D31A, K44Q, G70A, K71N, S95T

Assays:
[1] = biological target: T1, S-ECD protein of SARS-CoV-2 Omicron (B.1.1.529) (SARS-CoV-2 B.1.1.529 (Omicron), strain); experiment: cell-based or functional assay
[2] = biological target: T1, S-ECD protein of SARS-CoV-2 Omicron …; experiment: ELISA
[3] = biological target: SARS-CoV-2 Spike protein (ECD, His & FLAG tag), Wuhan-Hu-1 (wild-type) (SARS-CoV-2 Wuhan-Hu-1, UniProt P0DTC2); experiment: ELISA

Row | Binder | IC50 of neutralization of Omicron pseudovirus, Huh-7 cells, luciferase [1] [µg/mL] | ELISA AUC [2] | binding result [3]
1 | B1 | > 10 | ~26 | 
2 | B2 | 2 | ~30 | 
3 | B3 |  | ~30 | binds
